Assay results from patent publication US20220308072A1.

Tests used:
[1] = biological target: Recombinant, his tagged full length human frataxin protein (Abcam ab95502) (human) (UniProt Q16595); test: Simoa sandwich 3-step; capture Ab-4
[2] = biological target: Recombinant, his tagged full length human frataxin protein (Abcam ab95502) (human) (UniProt Q16595); test: Simoa sandwich 3-step; capture Ab-2
[3] = biological target: Recombinant, his tagged full length human frataxin protein (Abcam ab95502) (human) (UniProt Q16595); test: Simoa sandwich 2-step; capture Ab-2
[4] = biological target: Recombinant, his tagged full length human frataxin protein (Abcam ab95502) (human) (UniProt Q16595); test: Simoa sandwich 3-step; capture Ab-5; frataxin 100 pg/mL
[5] = biological target: Recombinant, his tagged full length human frataxin protein (Abcam ab95502) (human) (UniProt Q16595); test: Simoa sandwich 3-step; capture Ab-4; frataxin 100 pg/mL
[6] = biological target: Recombinant, his tagged full length human frataxin protein (Abcam ab95502) (human) (UniProt Q16595); test: Simoa sandwich 2-step; capture Ab-1; frataxin 100 pg/mL
[7] = biological target: Recombinant, his tagged full length human frataxin protein (Abcam ab95502) (human) (UniProt Q16595); test: Simoa sandwich 2-step; capture Ab-2; frataxin 500 pg/mL
[8] = biological target: Recombinant, his tagged full length human frataxin protein (Abcam ab95502) (human) (UniProt Q16595); test: Simoa sandwich 3-step; capture Ab-5; frataxin 1000 pg/mL
[9] = biological target: Recombinant, his tagged full length human frataxin protein (Abcam ab95502) (human) (UniProt Q16595); test: Simoa sandwich 2-step; capture Ab-1; frataxin 55.6 pg/mL
[10] = biological target: Recombinant, his tagged full length human frataxin protein (Abcam ab95502) (human) (UniProt Q16595); test: Simoa sandwich 2-step; capture Ab-2; frataxin 2.06 pg/mL
[11] = biological target: Recombinant, his tagged full length human frataxin protein (Abcam ab95502) (human) (UniProt Q16595); test: Simoa sandwich 2-step; capture Ab-2; frataxin 0.686 pg/mL
[12] = biological target: Recombinant, his tagged full length human frataxin protein (Abcam ab95502) (human) (UniProt Q16595); test: Simoa sandwich; capture Ab-1; no helper beads; frataxin 18.5 pg/mL
[13] = biological target: Recombinant, his tagged full length human frataxin protein (Abcam ab95502) (human) (UniProt Q16595); test: Simoa sandwich; capture Ab-1; no helper beads; frataxin 55.6 pg/mL
[14] = biological target: Recombinant, his tagged full length human frataxin protein (Abcam ab95502) (human) (UniProt Q16595); test: Simoa sandwich 2-step (120 min-5 min); capture Ab-1; Diluent 1 + 10% NCS
[15] = biological target: Recombinant, his tagged full length human frataxin protein (Abcam ab95502) (human) (UniProt Q16595); test: as above; remark: listed apart in the source
[16] = biological target: Recombinant, his tagged full length human frataxin protein (Abcam ab95502) (human) (UniProt Q16595); test: Simoa sandwich 2-step (120 min-5 min); capture Ab-1; Diluent 1 + 10% NCS; frataxin 333 pg/mL
[17] = biological target: Recombinant, his tagged full length human frataxin protein (Abcam ab95502) (human) (UniProt Q16595); test: Simoa sandwich 2-step (120 min-5 min); capture Ab-1; Diluent 1 + 5% NCS; frataxin 4.12 pg/mL

Sequence of UniProt Q16595 (Q16595 42-210): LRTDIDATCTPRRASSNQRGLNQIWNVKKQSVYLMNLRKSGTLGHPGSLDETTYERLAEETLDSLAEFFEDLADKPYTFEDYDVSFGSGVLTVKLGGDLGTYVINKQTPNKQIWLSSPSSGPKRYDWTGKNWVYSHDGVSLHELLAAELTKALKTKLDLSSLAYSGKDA

For “Ab-3, mouse monoclonal [18A5DB1] to Frataxin (Abcam ab110328) (antibody)”, the LOD [1] was 1.09 pg/mL, the LOD [2] was 0.65 pg/mL and the LOD [3] was 0.23 pg/mL. For the same substance, the Ave AEB [4] was 2.9 AEB, the S/B [4] was 15.2 and the Ave AEB [5] was 2.79 AEB. It also gave a S/B [5] of 23.8, an Ave AEB [6] of 7.11 AEB and a S/B [6] of 88.8. It also gave an Ave AEB [7] of 25.1 AEB, a S/B [7] of 263 and an Ave AEB [8] of 22.9 AEB. For the same substance, the S/B [8] was 120, the Ave AEB [9] was 5.52 AEB and the S/B [9] was 53.2. The Ave AEB [10] was 0.318 AEB, the S/B [10] was 3.33 and the Ave AEB [11] was 0.165 AEB. For the same substance, the S/B [11] was 1.73, the AEB Rep1 [12] was 0.363 AEB and the AEB Rep2 [12] was 0.362 AEB. The Ave AEB [12] was 0.363 AEB, the S/B [12] was 16 and the AEB Rep1 [13] was 1.16 AEB. For the same substance, the AEB Rep2 [13] was 0.608 AEB, the Ave AEB [13] was 0.885 AEB and the S/B [13] was 39.1. The LOD [14] was 0.323 pg/mL, the LOD [15] was 0.759 pg/mL and the Ave AEB [16] was 1.56 AEB. For the same substance, the S/B [16] was 145, the Ave AEB [17] was 0.0434 AEB and the S/B [17] was 3.95.
